# Measured values published in patent publication US20220372155A1 (LYVGEN BIOPHARMA, published 2022).
# What was measured:
# [1] = target: T1, human CD40 expressed on CHO cells (human, UniProt P25942 21-277); experiment: FACS, CHO cells
# T1 construct: whole, on cells; also used for the reporter cells over-expressing human CD40; also called cellular CD40; CHO-CD40 cells
# [2] = target: T2, human PD-L1 expressed on CHO cells (human, UniProt Q9NZQ7 19-290); experiment: FACS, CHO cells
# T2 construct: whole, on cells; also used for human PD-L1 on Raji cells in the reporter assay; also called cell surface PD-L1; Raji-PD-L1 cells
# T2 sequence (Q9NZQ7 19-290): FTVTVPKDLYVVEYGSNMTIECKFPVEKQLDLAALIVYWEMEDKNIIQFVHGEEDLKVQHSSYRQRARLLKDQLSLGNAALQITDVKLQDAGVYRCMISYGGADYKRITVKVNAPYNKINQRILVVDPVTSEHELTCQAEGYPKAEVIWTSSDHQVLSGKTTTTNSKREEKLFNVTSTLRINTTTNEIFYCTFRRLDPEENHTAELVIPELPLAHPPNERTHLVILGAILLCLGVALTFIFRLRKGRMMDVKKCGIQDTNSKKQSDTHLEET
# [3] = target: T3, Human PD-L1 ECD protein (mouse IgG2a Fc tag) (human, UniProt Q9NZQ7 19-238); experiment: bridging ELISA, coated CD40 ECD-His, soluble PD-L1 ECD-mFc
# T3 construct: extracellular domain; also called recombinant human PD-L1; not shown: mouse IgG2a Fc tag
# T3 sequence (Q9NZQ7 19-238): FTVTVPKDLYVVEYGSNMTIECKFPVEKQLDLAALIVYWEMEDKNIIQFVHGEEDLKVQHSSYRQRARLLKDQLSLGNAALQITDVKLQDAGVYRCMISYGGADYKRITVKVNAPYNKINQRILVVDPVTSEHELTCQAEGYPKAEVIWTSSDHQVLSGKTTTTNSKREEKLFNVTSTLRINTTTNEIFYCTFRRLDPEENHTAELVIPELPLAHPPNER
# Protocol: (§1) Exemplary anti-PD-L1/CD40 bi-specific antibodies were analyzed by ELISA for their simultaneous binding to recombinant human PD-L1 and human CD40. Briefly, Ly090 (human CD40 ECD protein with His tag) was diluted and coated onto an ELISA plate with a volume of 100 μL/well by incubation at 4° C. overnight. The next day, the plate was blocked by PBST-BSA buffer, then serially diluted samples of anti-PD-L1/CD40 bi-specific antibodies were pipetted into appropriate wells at 50 μL/well, and the plate was incubated for 1 h followed by Washing. Human PD-L1 ECD protein (mouse IgG2a Fc tag) was added into the plate at 50 μL/well. After 1-hour incubation at room temperature, HRP-conjugated anti-Mouse IgG, Fc G2a antibody was added into the plate at 100 μL/well. The plate was incubated for 1 hour at room temperature followed by washing. TMB substrate solution was added at 100 μL/well and the color development was stopped by adding 100 uL/well Stop Solution (2N H₂SO₄). Absorbance at 450 nm and 620 nm was read by Tecan F200 Pro plate reader. GraphPad 7.0, “[Agonist] vs. response—Variable slope (four parameters)” was used to plot the binding data and calculate binding EC50 values.
# [4] = target: T4, Ly090 (human CD40 ECD protein with His tag) (human, UniProt P25942 21-193); experiment: as above
# T4 construct: extracellular domain; also called human CD40 ECD protein (His tag); recombinant human CD40; not shown: His tag
# T4 sequence (P25942 21-193): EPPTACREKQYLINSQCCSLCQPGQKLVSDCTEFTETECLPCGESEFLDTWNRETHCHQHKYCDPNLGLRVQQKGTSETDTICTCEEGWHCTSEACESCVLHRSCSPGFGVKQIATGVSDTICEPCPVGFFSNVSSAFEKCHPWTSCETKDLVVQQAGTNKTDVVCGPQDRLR
# Protocol: as §1
# T1 sequence (P25942 21-277): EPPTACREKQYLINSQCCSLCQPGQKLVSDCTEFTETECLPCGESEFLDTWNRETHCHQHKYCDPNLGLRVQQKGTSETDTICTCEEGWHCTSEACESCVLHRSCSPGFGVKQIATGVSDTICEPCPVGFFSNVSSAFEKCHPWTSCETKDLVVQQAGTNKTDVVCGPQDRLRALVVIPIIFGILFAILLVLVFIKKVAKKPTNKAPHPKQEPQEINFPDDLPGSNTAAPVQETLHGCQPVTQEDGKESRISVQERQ
binding result [1],binding result [2],binding result [3],binding result [4],Binder
binds,binds,binds,binds,"Ly303 (bispecific antibody, human IgG1, kappa, Ly076 HC (IgG1 mutated Fc)-TM559 scFv VL-VH + Ly076 LC) heavy: QVQLVQSGAEVKKPGASVKVSCKASGYTFTDFWMSWVRQAPGQGLEWMGQIYPNTGTTHSNEKFKGRVTMTRDTSTSTVYMELSSLRSEDTAVYYCARSYHISTTPNWFAYWGQGTLVTVSSASTKGPSVFPLAPSSKSTSGGTAALGCLVKDYFPEPVTVSWNSGALTSGVHTFPAVLQSSGLYSLSSVVTVPSSSLGTQTYICNVNHKPSNTKVDKKVEPKSCDKTHTCPPCPAPELLGPSVFLFPPKPKDTLMISRTPEVTCVVVDVSHEDPEVKFNWYVDGVEVHNAKTKPREEQYNSTYRVVSVLTVLHQDWLNGKEYKCKVSNKALPAPIEKTISKAKGQPREPQVYTLPPSREEMTKNQVSLTCLVKGFYPSDIAVEWESNGQPENNYKTTPPVLDSDGSFFLYSKLTVDKSRWQQGNVFSCSVMHEALHNHYTQKSLSLSPGGGGGSGGGGSGGGGSGGGGSDIQMTQSPSSLSASVGDRVTITCLASEDISNDLAWYQQKPGKAPKLLIYFVDRLLDGVPSRFSGSGSGTDFTLTISSLQPEDFATYYCQQSYKYPPTFGQGTKLEIKGGGGSGGGGSGGGGSGGGGSEVQLVESGGGLVQPGGSLRLSCAASGFTFTNYGLHWVRQAPGKGLEWVSSISPSGGVTYYRDSVKGRFTISRDNSKNTLYLQMNSLRAEDTAVYYCAKPFLGWGGANWIAHWGQGTLVTVSS light: DIQMTQSPSSLSASVGDRVTITCKASQNVYKKLEWYQQKPGKVPKVLIYHTNILQTGVPSRFSGSGSGTDYTLTISSLQPEDVATYYCYQWNSGPTFGGGTKVEIKRTVAAPSVFIFPPSDEQLKSGTASVVCLLNNFYPREAKVQWKVDNALQSGNSQESVTEQDSKDSTYSLSSTLTLSKADYEKHKVYACEVTHQGLSSPVTKSFNRGEC"
binds,binds,binds,binds,"Ly340 (bispecific antibody, human IgG1, kappa, Ly076 HC (IgG1 mutated Fc)-TM559 scFv VH-VL + Ly076 LC) heavy: QVQLVQSGAEVKKPGASVKVSCKASGYTFTDFWMSWVRQAPGQGLEWMGQIYPNTGTTHSNEKFKGRVTMTRDTSTSTVYMELSSLRSEDTAVYYCARSYHISTTPNWFAYWGQGTLVTVSSASTKGPSVFPLAPSSKSTSGGTAALGCLVKDYFPEPVTVSWNSGALTSGVHTFPAVLQSSGLYSLSSVVTVPSSSLGTQTYICNVNHKPSNTKVDKKVEPKSCDKTHTCPPCPAPELLGPSVFLFPPKPKDTLMISRTPEVTCVVVDVSHEDPEVKFNWYVDGVEVHNAKTKPREEQYNSTYRVVSVLTVLHQDWLNGKEYKCKVSNKALPAPIEKTISKAKGQPREPQVYTLPPSREEMTKNQVSLTCLVKGFYPSDIAVEWESNGQPENNYKTTPPVLDSDGSFFLYSKLTVDKSRWQQGNVFSCSVMHEALHNHYTQKSLSLSPGGGGGSGGGGSGGGGSGGGGSEVQLVESGGGLVQPGGSLRLSCAASGFTFTNYGLHWVRQAPGKGLEWVSSISPSGGVTYYRDSVKGRFTISRDNSKNTLYLQMNSLRAEDTAVYYCAKPFLGWGGANWIAHWGQGTLVTVSSGGGGSGGGGSGGGGSGGGGSDIQMTQSPSSLSASVGDRVTITCLASEDISNDLAWYQQKPGKAPKLLIYFVDRLLDGVPSRFSGSGSGTDFTLTISSLQPEDFATYYCQQSYKYPPTFGQGTKLEIK light: DIQMTQSPSSLSASVGDRVTITCKASQNVYKKLEWYQQKPGKVPKVLIYHTNILQTGVPSRFSGSGSGTDYTLTISSLQPEDVATYYCYQWNSGPTFGGGTKVEIKRTVAAPSVFIFPPSDEQLKSGTASVVCLLNNFYPREAKVQWKVDNALQSGNSQESVTEQDSKDSTYSLSSTLTLSKADYEKHKVYACEVTHQGLSSPVTKSFNRGEC"
binds,binds,binds,binds,"Ly349 (bispecific antibody, human IgG1, kappa, Ly076 HC (IgG1 mutated Fc) + Ly076 LC-TM740 scFv VL-VH) heavy: QVQLVQSGAEVKKPGASVKVSCKASGYTFTDFWMSWVRQAPGQGLEWMGQIYPNTGTTHSNEKFKGRVTMTRDTSTSTVYMELSSLRSEDTAVYYCARSYHISTTPNWFAYWGQGTLVTVSSASTKGPSVFPLAPSSKSTSGGTAALGCLVKDYFPEPVTVSWNSGALTSGVHTFPAVLQSSGLYSLSSVVTVPSSSLGTQTYICNVNHKPSNTKVDKKVEPKSCDKTHTCPPCPAPELLGPSVFLFPPKPKDTLMISRTPEVTCVVVDVSHEDPEVKFNWYVDGVEVHNAKTKPREEQYNSTYRVVSVLTVLHQDWLNGKEYKCKVSNKALPAPIEKTISKAKGQPREPQVYTLPPSREEMTKNQVSLTCLVKGFYPSDIAVEWESNGQPENNYKTTPPVLDSDGSFFLYSKLTVDKSRWQQGNVFSCSVMHEALHNHYTQKSLSLSPG light: DIQMTQSPSSLSASVGDRVTITCKASQNVYKKLEWYQQKPGKVPKVLIYHTNILQTGVPSRFSGSGSGTDYTLTISSLQPEDVATYYCYQWNSGPTFGGGTKVEIKRTVAAPSVFIFPPSDEQLKSGTASVVCLLNNFYPREAKVQWKVDNALQSGNSQESVTEQDSKDSTYSLSSTLTLSKADYEKHKVYACEVTHQGLSSPVTKSFNRGECGGGGSGGGGSGGGGSGGGGSDIQMTQSPSSLSASVGDRVTITCKASQNIYIYLNWYQQKPGKAPKLLIYNTNNLQTGVPSRFSGSGSGTDFTLTISSLQPEDFATYYCLQHSSRRTFGGGTKVEIKGGGGSGGGGSGGGGSGGGGSQVQLVESGGGLVQPGGSLKLSCATSGFNFNDYFMNWVRQASGKGLEWVGQIRNKNYNYATYYTESLEGRVTISRDDSKNTAYLQMNSLKTEDTAVYYCTSYYYDGFADYFDYWGQGTTVTVSS"
binds,binds,binds,binds,"Ly339 (bispecific antibody, human IgG1, kappa, Ly076 HC (IgG1 mutated Fc) + Ly076 LC-TM740 scFv VH-VL) heavy: QVQLVQSGAEVKKPGASVKVSCKASGYTFTDFWMSWVRQAPGQGLEWMGQIYPNTGTTHSNEKFKGRVTMTRDTSTSTVYMELSSLRSEDTAVYYCARSYHISTTPNWFAYWGQGTLVTVSSASTKGPSVFPLAPSSKSTSGGTAALGCLVKDYFPEPVTVSWNSGALTSGVHTFPAVLQSSGLYSLSSVVTVPSSSLGTQTYICNVNHKPSNTKVDKKVEPKSCDKTHTCPPCPAPELLGPSVFLFPPKPKDTLMISRTPEVTCVVVDVSHEDPEVKFNWYVDGVEVHNAKTKPREEQYNSTYRVVSVLTVLHQDWLNGKEYKCKVSNKALPAPIEKTISKAKGQPREPQVYTLPPSREEMTKNQVSLTCLVKGFYPSDIAVEWESNGQPENNYKTTPPVLDSDGSFFLYSKLTVDKSRWQQGNVFSCSVMHEALHNHYTQKSLSLSPG light: DIQMTQSPSSLSASVGDRVTITCKASQNVYKKLEWYQQKPGKVPKVLIYHTNILQTGVPSRFSGSGSGTDYTLTISSLQPEDVATYYCYQWNSGPTFGGGTKVEIKRTVAAPSVFIFPPSDEQLKSGTASVVCLLNNFYPREAKVQWKVDNALQSGNSQESVTEQDSKDSTYSLSSTLTLSKADYEKHKVYACEVTHQGLSSPVTKSFNRGECGGGGSGGGGSGGGGSGGGGSQVQLVESGGGLVQPGGSLKLSCATSGFNFNDYFMNWVRQASGKGLEWVGQIRNKNYNYATYYTESLEGRVTISRDDSKNTAYLQMNSLKTEDTAVYYCTSYYYDGFADYFDYWGQGTTVTVSSGGGGSGGGGSGGGGSGGGGSDIQMTQSPSSLSASVGDRVTITCKASQNIYIYLNWYQQKPGKAPKLLIYNTNNLQTGVPSRFSGSGSGTDFTLTISSLQPEDFATYYCLQHSSRRTFGGGTKVEIK"
